In paper PMC2841545 (Protein Engineering, Design and Selection, 2010):

Target: ABL1 SH2 domain (Homo sapiens (clone BC059260 maps to …, UniProt P00519))
Assay: ELISA

Chain of ABL1 SH2 domain (Homo sapiens (P00519 whole entry, looked up, the tested form may be a part): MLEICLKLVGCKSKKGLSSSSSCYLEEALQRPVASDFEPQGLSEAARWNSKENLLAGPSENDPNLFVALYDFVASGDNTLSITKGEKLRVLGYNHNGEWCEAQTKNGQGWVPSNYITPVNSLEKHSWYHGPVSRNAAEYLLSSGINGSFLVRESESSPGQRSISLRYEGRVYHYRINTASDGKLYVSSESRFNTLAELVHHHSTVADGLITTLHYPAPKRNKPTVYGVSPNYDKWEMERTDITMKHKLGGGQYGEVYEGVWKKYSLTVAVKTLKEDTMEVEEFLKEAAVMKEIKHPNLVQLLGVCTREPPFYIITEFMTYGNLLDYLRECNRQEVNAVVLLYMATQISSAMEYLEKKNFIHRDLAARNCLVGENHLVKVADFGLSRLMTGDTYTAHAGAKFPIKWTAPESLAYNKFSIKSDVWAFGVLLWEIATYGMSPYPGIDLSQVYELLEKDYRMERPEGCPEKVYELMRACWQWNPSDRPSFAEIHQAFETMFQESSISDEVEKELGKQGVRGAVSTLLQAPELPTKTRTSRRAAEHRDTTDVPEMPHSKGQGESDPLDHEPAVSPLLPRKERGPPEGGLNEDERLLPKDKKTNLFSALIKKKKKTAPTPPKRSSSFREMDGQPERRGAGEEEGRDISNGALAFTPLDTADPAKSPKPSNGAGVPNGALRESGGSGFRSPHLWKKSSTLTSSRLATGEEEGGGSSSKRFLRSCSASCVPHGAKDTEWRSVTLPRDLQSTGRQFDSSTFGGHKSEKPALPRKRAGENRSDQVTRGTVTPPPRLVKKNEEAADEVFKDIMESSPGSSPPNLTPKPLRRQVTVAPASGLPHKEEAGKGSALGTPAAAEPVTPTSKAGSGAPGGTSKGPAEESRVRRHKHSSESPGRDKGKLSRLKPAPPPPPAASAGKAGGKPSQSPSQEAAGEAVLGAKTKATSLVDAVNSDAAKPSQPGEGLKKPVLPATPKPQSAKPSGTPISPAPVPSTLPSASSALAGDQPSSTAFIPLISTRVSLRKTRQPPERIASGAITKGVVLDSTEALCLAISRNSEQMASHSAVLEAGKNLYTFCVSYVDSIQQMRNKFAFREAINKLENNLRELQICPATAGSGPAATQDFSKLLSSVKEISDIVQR

B1: scFv 43H02 (Group ai, selected on ABL1) (scFv, V domains shown)
VH: EVQLLESGGGLVKPGGSLRLSCAASGFTFDDYAMHWVRQAPGKGLEWVSGISWNSGSIGYADSVKGRFTISRDNAKNSLYLQMNSLRAEDTALYYCAKGGPGIRYPDAFDIWGQGTLVTVSS
VL: not shown
Q: Does B1 bind?
A: Result: binds

B2: scFv 43_E02 (Group aiii, selected on ABL1) (scFv, V domains shown)
VH: EVQLLESGGGLVQPGRSLRLSCAASGFTFDDYAMHWVRQAPGKGLEWVSGISWNSGSIGYADSVKGRFTISRDNAKNSLYLQMNSLRAEDTALYYCAKGGPGIRYPDAFDIWGQGTMVTVSS
VL: DIQMTQSPSSLSASVGDRVTITCRASQSIRNDLGWYQQKPGKAPKLLIYAASSLQSGVPSRFSGSGSGTDFTLTISSLQPEDFATYYCQQSSSTPITFGGGTKVEIK
Q: Does B2 bind?
A: Result: binds
